The values below come from US20140127212A1 (AstraZeneca / MedImmune, published 2014).

Assay [1] has as its target T1, cynomolgus IgE (recombinant chimaeric D12 variable region and cynomolgus IgE constant region) (cynomolgus monkey (constant region); …). In words: cell-based or functional assay.
The target of assay [2] is MOv18 IgE. The assay is described as follows: cell-based or functional assay.
The target of assay [3] is T1, cynomolgus IgE (recombinant chimaeric …). The assay is described as follows: SPR BIAcore; IgG captured on protein G', IgE analyte, bivalent analyte fit; geomean.
Assay [4] concerns the target human IgE (preparation not stated, or 'Calbiochem or U266-derived') (human, UniProt P01854-1 1-428). In words: cell-based or functional assay.
Assay [5] has as its target T2, cynomolgus IgE Cε3-Cε4 domain, C-terminally tagged with FLAG His10 (cynomolgus monkey).
T2 construct: also called Cynomolgus Ce3-4 FLAG His10
T2 chain: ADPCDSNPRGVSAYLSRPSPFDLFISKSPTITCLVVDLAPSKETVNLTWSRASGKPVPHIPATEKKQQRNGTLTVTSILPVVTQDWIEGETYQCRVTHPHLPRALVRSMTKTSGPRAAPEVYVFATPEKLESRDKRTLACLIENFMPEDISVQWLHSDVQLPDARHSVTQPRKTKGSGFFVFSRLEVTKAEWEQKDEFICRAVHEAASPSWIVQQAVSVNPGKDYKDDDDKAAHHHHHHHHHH
The assay is described as follows: DELFIA epitope competition; competitor vs biotinylated IgE on immobilised IgG.

T1 sequence (heavy, as listed by the source limits assumed, chain 1 of 2): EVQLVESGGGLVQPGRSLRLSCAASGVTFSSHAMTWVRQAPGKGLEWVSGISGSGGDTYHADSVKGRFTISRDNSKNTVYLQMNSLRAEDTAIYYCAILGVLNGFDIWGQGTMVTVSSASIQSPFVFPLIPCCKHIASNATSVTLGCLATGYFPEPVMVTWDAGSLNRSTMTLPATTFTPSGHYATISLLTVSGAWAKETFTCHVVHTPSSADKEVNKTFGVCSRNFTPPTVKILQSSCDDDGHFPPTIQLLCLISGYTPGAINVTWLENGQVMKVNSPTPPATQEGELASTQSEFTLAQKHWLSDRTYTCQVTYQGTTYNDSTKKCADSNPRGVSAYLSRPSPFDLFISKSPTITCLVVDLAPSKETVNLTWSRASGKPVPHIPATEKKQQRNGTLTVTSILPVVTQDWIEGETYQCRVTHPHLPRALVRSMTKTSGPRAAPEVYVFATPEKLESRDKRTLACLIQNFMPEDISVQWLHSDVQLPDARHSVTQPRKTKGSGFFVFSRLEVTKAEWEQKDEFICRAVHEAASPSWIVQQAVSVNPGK
T1 sequence (light, as listed by the source limits assumed, chain 2 of 2): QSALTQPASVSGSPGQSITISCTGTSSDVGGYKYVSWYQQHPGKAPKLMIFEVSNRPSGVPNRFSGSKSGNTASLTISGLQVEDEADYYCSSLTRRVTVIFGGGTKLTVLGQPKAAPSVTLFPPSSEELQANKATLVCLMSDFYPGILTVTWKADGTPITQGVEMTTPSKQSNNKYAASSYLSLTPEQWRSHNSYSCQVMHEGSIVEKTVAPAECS
human IgE (preparation not stated, or 'Calbiochem or U266-derived'), sequence (P01854 other isoform, or with tags, fused parts or gaps): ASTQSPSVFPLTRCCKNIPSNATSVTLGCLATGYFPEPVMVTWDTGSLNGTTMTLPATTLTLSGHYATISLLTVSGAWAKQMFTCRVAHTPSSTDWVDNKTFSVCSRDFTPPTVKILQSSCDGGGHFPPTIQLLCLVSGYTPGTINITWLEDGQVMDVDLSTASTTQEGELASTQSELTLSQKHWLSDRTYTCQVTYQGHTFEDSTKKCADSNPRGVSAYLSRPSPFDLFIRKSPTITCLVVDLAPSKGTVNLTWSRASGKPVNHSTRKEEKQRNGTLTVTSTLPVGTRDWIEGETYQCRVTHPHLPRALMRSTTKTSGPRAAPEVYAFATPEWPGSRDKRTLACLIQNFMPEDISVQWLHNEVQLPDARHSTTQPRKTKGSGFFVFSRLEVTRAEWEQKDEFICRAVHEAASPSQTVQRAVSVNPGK

B1: Antibody 11 IgG (antibody, V domains shown)
VH: QVQLVQSGAEVKKPGATVKLSCKVYGYIFTDYNIYWVRQAPGKGLEWMGLIDPDNGETFYAEKFQGRATMTADTSSDRAYMELTSLTFEDTATYYCATVMGKWIKGGYDYWGRGTLVTVSS
VL: QSVLTQPPSVSGAPGQRVTISCTGSSSNIGAGYDVHWYQQLPGTAPKLLIYDNFNRPSGVPDRFSGSKSGTSASLAIIGLQTEDEADYYCQSYDSPTLTSPFGTGTKLTVL
notes: Whole human IgG (section 1.4, IgG1)
With B1, the “RBL-ER51 calcium signalling IC50 (nM), Cynomolgus IgE, geomean” value (“RBL-ER51 calcium signalling IC50 (nM)” for short) in assay [1] worked out at 0.153 nM. For the same molecule, in assay [2], the “IC50 (read off the curve), IgE/FcεRI-mediated cytotoxicity” value was approximately 0.1 nM. Moreover, in assay [3], the Kd is 9.3 nM.

B2: Antibody 1 IgG (antibody, V domains shown)
VH: QVQLVQSGAEVKKPGATVKLSCKVYGYIFTDYNIYWVRQAPGKGLEWMGLIDPDNGETFYAEKFQGRATMTADTSSDRAYMELTSLTFEDTATYYCATVLHRRLKGGYDYWGRGTLVTVSS
VL: QSVLTQPPSVSGAPGQRVTISCTGSSSNIGAGYDVHWYQQLPGTAPKLLIYDNFNRPSGVPDRFSGSKSGTSASLAIIGLQTEDEADYYCQSYDSSLSGSLFGTGTKLTVL
notes: Whole human IgG (section 1.4, IgG1); also called parent antibody
For the molecule B2, in assay [4], the “IgE induced calcium signalling of RBL-ER51 cells, IC50” value came out at 34 nM. The binding result in assay [5] was “binds”.

B3: Antibody 13 IgG (antibody, V domains shown)
VH: QVQLVQSGAEVKKPGATVKLSCKVYGYIFTDYNIYWVRQAPGKGLEWMGLIDPDNGETFYAEKFQGRATMTADTSSDRAYMELTSLTFEDTATYYCATVMGKWIKGGYDYWGRGTLVTVSS
VL: QSVLTQPPSVSGAPGQRVTISCTGSSSNIGAGYDVHWYQQLPGTAPKLLIYDNFNRPSGVPDRFSGSKSGTSASLAIIGLQTEDEADYYCQSYDSNILYSPFGTGTKLTVL
notes: as for B1
For B3, in assay [1], the “RBL-ER51 calcium signalling IC50 (nM)” value stood at 0.244 nM. For the same molecule, in assay [3], the Kd was found to be 9.9 nM.

B4: Antibody 28 IgG (antibody, V domains shown)
VH: QVQLVQSGAEVKKPGATVKLSCKVYGYIFTDYNIYWVRQAPGKGLEWMGLIDPDNGETFYAEKFQGRATMTADTSSDRAYMELTSLTFEDTATYYCATVMGKWIKGGYDYWGRGTLVTVSS
VL: QSVLTQPPSVSGAPGQRVTISCTGSSSNIGAGYDVHWYQQLPGTAPKLLIYDNFNRPSGVPDRFSGSKSGTSASLAIIGLQTEDEADYYCQSYDSSSLHSPFGTGTKLTVL
notes: as for B1
As to B4, the “RBL-ER51 calcium signalling IC50 (nM)” value in assay [1] came out at 0.253 nM. For the same molecule, the Kd in assay [3] was found to be 7.2 nM.

B5: Antibody 16 IgG (antibody, V domains shown)
VH: QVQLVQSGAEVKKPGATVKLSCKVYGYIFTDYNIYWVRQAPGKGLEWMGLIDPDNGETFYAEKFQGRATMTADTSSDRAYMELTSLTFEDTATYYCATVSLKSAKGGYDYWGRGTLVTVSS
VL: QSVLTQPPSVSGAPGQRVTISCTGSSSNIGAGYDVHWYQQLPGTAPKLLIYDNFNRPSGVPDRFSGSKSGTSASLAIIGLQTEDEADYYCQSYDSRHHHAPFGTGTKLTVL
notes: as for B1
B5: the “RBL-ER51 calcium signalling IC50 (nM)” value in assay [1] came to 4.38 nM. The Kd in assay [3] came out at 62 nM.

B6: Antibody 19 IgG (antibody, V domains shown)
VH: QVQLVQSGAEVKKPGATVKLSCKVYGYIFTDYNIYWVRQAPGKGLEWMGLIDPDNGETFYAEKFQGRATMTADTSSDRAYMELTSLTFEDTATYYCATVMGKWIKGGYDYWGRGTLVTVSS
VL: QSVLTQPPSVSGAPGQRVTISCTGSSSNIGAGYDVHWYQQLPGTAPKLLIYDNFNRPSGVPDRFSGSKSGTSASLAIIGLQTEDEADYYCQSYDSTLSHSPFGTGTKLTVL
notes: as for B1
As to B6, the “RBL-ER51 calcium signalling IC50 (nM)” value in assay [1] turned out to be 0.111 nM. The Kd in assay [3] was 7.9 nM.

B7: Antibody 23 IgG (antibody, V domains shown)
VH: QVQLVQSGAEVKKPGATVKLSCKVYGYIFTDYNIYWVRQAPGKGLEWMGLIDPDNGETFYAEKFQGRATMTADTSSDRAYMELTSLTFEDTATYYCATVMGKWIKGGYDYWGRGTLVTVSS
VL: QSVLTQPPSVSGAPGQRVTISCTGSSSNIGAGYDVHWYQQLPGTAPKLLIYDNFNRPSGVPDRFSGSKSGTSASLAIIGLQTEDEADYYCQSYDSHHLYSSFGTGTKLTVL
notes: as for B1
Consider B7, for which the “RBL-ER51 calcium signalling IC50 (nM)” value in assay [1] amounted to 0.523 nM. In addition, the Kd in assay [3] was found to be 4.3 nM.

B8: Antibody 20 IgG (antibody, V domains shown)
VH: QVQLVQSGAEVKKPGATVKLSCKVYGYIFTDYNIYWVRQAPGKGLEWMGLIDPDNGETFYAEKFQGRATMTADTSSDRAYMELTSLTFEDTATYYCATVMGKWIKGGYDYWGRGTLVTVSS
VL: QSVLTQPPSVSGAPGQRVTISCTGSSSNIGAGYDVHWYQQLPGTAPKLLIYDNFNRPSGVPDRFSGSKSGTSASLAIIGLQTEDEADYYCQSYDSSTSSSPFGTGTKLTVL
notes: as for B1
With B8, in assay [1], the “RBL-ER51 calcium signalling IC50 (nM)” value worked out at 0.31 nM. For the same molecule, the Kd in assay [3] came out at 10.5 nM.
